From patent publication US20140308269A1 (published 2014)

What was measured:
[1] = target: T1, soluble ICAM-1 (Bender MedSystems) (UniProt P05362 28-480, limits assumed); experiment: ELISA on plate-coated soluble ICAM-1, His-tagged scFv detected with anti-His-HRP
T1 construct: Bought soluble protein coated on the ELISA plate
Experimental: (§1) To evaluate the binding affinity of histidine-tagged human single chain (hsc) proteins soluble ICAM was used in an ELISA assay. A 96-well EIA plate (Corning, Inc.) was coated with 100 μl/well soluble ICAM-1 (Bender MedSystems) at 1 μg/ml in 0.1 M. NaHCO₃. After washing with TBST (50 mM Tris, pH8.0, 150 mM NaCl, 0.05% Tween-20), the plate was blocked with 3% non-fat milk in TBST at 37° C. for 1 hour. After washing with TBST, the plate was incubated with scFv samples (100 μl/well) diluted in 1% non-fat milk/TBST solution at room temperature for 1 hour. After washing with TBST, the horse radish peroxidase-conjugated anti-His (C-term) antibody (Invitrogen) diluted 1:2000 in 1% non-fat milk/TBST was added and the plate was incubated at room temperature for 1 hour. The plate was washed thoroughly with TBST and 100 μl/well 3,3′,5,5′-tetramethylbenzidine substrate solution (Kirkegaard and Perry Laboratories) was added. After 5 min incubation, the color development was stopped by adding […] 0.12 N HCl and the absorbance of the wells at 450 nm was measured by a plate reader (ICN).

ICAM-1 on HeLa cells [2] = target: T2, ICAM-1 on HeLa cells (UniProt P05362 28-532, limits assumed); experiment: cell-based or functional assay
[3] = target: T1, soluble ICAM-1 (Bender MedSystems); experiment: ELISA on plate-coated soluble ICAM-1; reference Msc1A6
Experimental: as §1

ICAM-1 on HeLa cells [4] = target: T2, ICAM-1 on HeLa cells; experiment: cell-based or functional assay; remark: listed apart in the source

T2 sequence (P05362 28-532 limits assumed): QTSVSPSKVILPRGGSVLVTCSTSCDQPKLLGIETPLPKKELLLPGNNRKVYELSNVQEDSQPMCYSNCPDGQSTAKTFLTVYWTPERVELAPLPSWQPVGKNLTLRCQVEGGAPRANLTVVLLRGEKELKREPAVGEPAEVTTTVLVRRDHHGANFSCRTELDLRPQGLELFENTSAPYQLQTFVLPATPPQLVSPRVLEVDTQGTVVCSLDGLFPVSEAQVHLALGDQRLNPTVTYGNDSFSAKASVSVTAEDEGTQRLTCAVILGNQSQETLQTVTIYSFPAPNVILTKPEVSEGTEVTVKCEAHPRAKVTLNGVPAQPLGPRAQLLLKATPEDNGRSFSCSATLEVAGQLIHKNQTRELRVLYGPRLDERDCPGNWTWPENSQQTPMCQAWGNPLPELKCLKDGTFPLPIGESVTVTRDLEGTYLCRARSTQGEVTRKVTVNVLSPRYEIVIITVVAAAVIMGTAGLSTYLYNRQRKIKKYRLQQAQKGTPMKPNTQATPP
T1 sequence (P05362 28-480 limits assumed): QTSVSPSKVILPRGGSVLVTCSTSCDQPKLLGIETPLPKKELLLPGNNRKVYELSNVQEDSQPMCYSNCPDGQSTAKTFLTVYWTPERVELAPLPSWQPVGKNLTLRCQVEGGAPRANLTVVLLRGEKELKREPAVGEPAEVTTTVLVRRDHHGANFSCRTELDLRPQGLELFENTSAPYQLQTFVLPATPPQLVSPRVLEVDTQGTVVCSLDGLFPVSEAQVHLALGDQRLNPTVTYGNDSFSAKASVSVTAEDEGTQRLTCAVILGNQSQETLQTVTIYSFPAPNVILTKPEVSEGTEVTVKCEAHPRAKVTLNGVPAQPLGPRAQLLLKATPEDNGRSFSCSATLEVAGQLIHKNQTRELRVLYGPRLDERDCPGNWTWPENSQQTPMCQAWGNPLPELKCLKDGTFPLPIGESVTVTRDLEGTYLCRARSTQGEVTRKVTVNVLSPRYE

B1: Msc1A6 (parental mouse monoclonal antibody 1A6 in the form of scFv) (scFv, V domains shown)
VH: EVQLQQSGAELVKPGASLKLSCTASGFNIKDTYIHWMKQRPEQGLEWIGRIDPANDNTIYDPKVQGKATMTADTSSNTAYLQLNSLTSEDTAVYYCTTSGYWFAYWGQGTLVTVSS
VL: DIVLTQSPATLSVTPGDSVSLSCRASQSISNNLHWYQQKHSESPRLLIKHASQSISGIPSRFSGSGSGTDFTLSINSVETEDFGMFFCQQSNSWPYTFGGGTKLEIKR
notes: Tested as a single-chain Fv (one polypeptide); also called Mouse 1A6 scFv; mouse IA6 scFv
Q: How did the Kd [1] turn out when B1 was run?
A: 1180 nM

Q: And the “EC 50 (µM): 50% protection of HeLa cells against HRV15 infection at 1 MOI” value (ICAM-1 on HeLa cells [2])?
A: > 10 µM

B2: HscD (humanized 1A6 scFv HumD) (scFv)
scFv: DIQMTQSPSSLSASVGDRVTITCRASQSISNNLHWYQQKPGKAPKLLIYHASQSISGVPSRFSGSGSGTDFTLTISSLQPEDFATYYCQQSNSWPYTFGQGTKVEIKRGGGGSGGGGSGGGGSGGGGSEVQLVESGGGLVQPGGSLRLSCAASGFNIKDTYIHWVRQAPGKGLEWVARIDPANDNTIYADSVKGRFTISSDDSKNTAYLQMNSLRAEDTAVYYCTTSGYWFAYWGQGTLVTVSS
notes: not shown: carboxy-terminal His tag of vector pBAD/pIII A
Q: With B2 as the binder, how does the Kd [1] read?
A: 23.3 nM

Q: And the “EC 50 (µM): 50% protection of HeLa cells against HRV15 infection at 1 MOI” value (ICAM-1 on HeLa cells [2])?
A: 0.05 µM

Q: What about the “fold higher binding affinity than the parental mouse scFv” value [3] of the same binder?
A: > 10 fold

B3: HscF (humanized 1A6 scFv HumF) (scFv)
scFv: DIQMTQSPSSLSASVGDRVTITCRASQSISNNLHWYQQKPGKAPKLLIYHASQSISGVPSRFSGSGSGTDFTLTISSLQPEDFATYYCQQSNSWPYTFGQGTKVEIKRGGGGSGGGGSGGGGSGGGGSEVQLVESGGGLVQPGGSLRLSCAASGFNIKDTYIHWVRQAPGKGLEWVARIDPANDNTIYADSVKGRFTISADDSKNTAYLQMNSLRAEDTAVYYCTTSGYWFAYWGQGTLVTVSS
notes: as for B2
Q: What does the source list for B3?
A: Kd [1]: 46 nM; EC 50 (µM): 50% protection of HeLa cells against HRV15 infection at 1 MOI (ICAM-1 on HeLa cells [2]): 0.29 µM; fold higher binding affinity than the parental mouse scFv [3]: > 10 fold

B4: HscC (humanized 1A6 scFv HumC) (scFv)
scFv: DIQMTQSPSSLSASVGDRVTITCRASQSISNNLHWYQQKPGKAPKLLIYHASQSISGVPSRFSGSGSGTDFTLTISSLQPEDFATYYCQQSNSWPYTFGQGTKVEIKRGGGGSGGGGSGGGGSGGGGSEVQLVESGGGLVQPGGSLRLSCAASGFNIKDTYIHWVRQAPGKGLEWVARIDPANDNTIYADSVKGRFTISGDDSKNTAYLQMNSLRAEDTAVYYCTTSGYWFAYWGQGTLVTVSS
notes: as for B2
Q: For B4, which Kd [1] is on record?
A: 58 nM

Q: And the “fold higher binding affinity than the parental mouse scFv” value [3]?
A: > 10 fold

B5: HscA (humanized 1A6 scFv HumA) (scFv)
scFv: DIQMTQSPSSLSASVGDRVTITCRASQSISNNLHWYQQKPGKAPKLLIYHASQSISGVPSRFSGSGSGTDFTLTISSLQPEDFATYYCQQSNSWPYTFGQGTKVEIKRGGGGSGGGGSGGGGSGGGGSEVQLVESGGGLVQPGGSLRLSCAASGFNIKDTYIHWVRQAPGKGLEWVARIDPANDNTIYADSVKGRFTISSDDSKNTAYLQMNSLRAEDTAVYYCTDSGYWFAYWGQGTLVTVSS
notes: also called humanized scFv A; scFV3; not shown: carboxy-terminal His tag of vector pBAD/pIII A
Q: Which results are given for B5?
A: Kd [1]: 150 nM; fold higher binding affinity than the parental mouse scFv [3]: > 10 fold

B6: HscI (humanized 1A6 scFv HumI) (scFv)
scFv: DIQMTQSPSSLSASVGDRVTITCRASQSISNNLHWYQQKPGKAPKLLIKHASQSISGVPSRFSGSGSGTDFTLTISSLQPEDFATYYCQQSNSWPYTFGQGTKVEIKRGGGGSGGGGSGGGGSGGGGSEVQLVESGGGLVQPGGSLRLSCAASGFNIKDTYIHWMRQAPGKGLEWVARIDPANDNTIYDPKVQGRFTMSADTSKNTAYLQMNSLRAEDTAVYYCTTSGYWFAYWGQGTLVTVSS
notes: as for B2
Q: Which results are given for B6?
A: Kd [1]: 150 nM; EC 50 (µM): 50% protection of HeLa cells against HRV15 infection at 1 MOI (ICAM-1 on HeLa cells [2]): > 10 µM; fold higher binding affinity than the parental mouse scFv [3]: > 10 fold

B7: HscH (humanized 1A6 scFv HumH) (scFv)
scFv: DIQMTQSPSSLSASVGDRVTITCRASQSISNNLHWYQQKPGKAPKLLIKHASQSISGVPSRFSGSGSGTDFTLTISSLQPEDFATYYCQQSNSWPYTFGQGTKVEIKRGGGGSGGGGSGGGGSGGGGSEVQLVESGGGLVQPGGSLRLSCAASGFNIKDTYIHWVRQAPGKGLEWVARIDPANDNTIYDPKVQGRFTISADDSKNTAYLQMNSLRAEDTAVYYCTTSGYWFAYWGQGTLVTVSS
notes: as for B2
Q: What does the source list for B7?
A: Kd [1]: 20.9 nM; EC 50 (µM): 50% protection of HeLa cells against HRV15 infection at 1 MOI (ICAM-1 on HeLa cells [2]): 4.2 µM; fold higher binding affinity than the parental mouse scFv [3]: > 10 fold

B8: HscB (humanized 1A6 scFv HumB) (scFv)
scFv: DIQMTQSPSSLSASVGDRVTITCRASQSISNNLHWYQQKPGKAPKLLIYHASQSISGVPSRFSGSGSGTDFTLTISSLQPEDFATYYCQQSNSWPYTFGQGTKVEIKRGGGGSGGGGSGGGGSGGGGSEVQLVESGGGLVQPGGSLRLSCAASGFNIKDTYIHWVRQAPGKGLEWVARIDPANDNTIYADSVKGRFTISSDDSKNTAYLQMNSLRAEDTAVYYCTASGYWFAYWGQGTLVTVSS
notes: also called Hum19; Hum 19 scFv; not shown: carboxy-terminal His tag of vector pBAD/pIII A
Q: With B8 as the binder, how does the Kd [1] read?
A: 26.2 nM

Q: What about the “fold higher binding affinity than the parental mouse scFv” value [3] of the same binder?
A: > 10 fold

Q: And the “EC50 of protection of HeLa cells from HRV infection, against the parental mouse 1A6 scFv protein” value (ICAM-1 on HeLa cells [4])?
A: > 60 fold
